For assay [1], the target named is FcγRIIIa-V158 on Promega Jurkat effector cells (UniProt P08637 17-254, limits assumed). Description: cell-based or functional assay.
For assay [2], the target named is T1, human CD37 (human, UniProt P11049 1-281).
T1 construct: whole, on cells; also called CD37 antigen
T1 sequence (looked up): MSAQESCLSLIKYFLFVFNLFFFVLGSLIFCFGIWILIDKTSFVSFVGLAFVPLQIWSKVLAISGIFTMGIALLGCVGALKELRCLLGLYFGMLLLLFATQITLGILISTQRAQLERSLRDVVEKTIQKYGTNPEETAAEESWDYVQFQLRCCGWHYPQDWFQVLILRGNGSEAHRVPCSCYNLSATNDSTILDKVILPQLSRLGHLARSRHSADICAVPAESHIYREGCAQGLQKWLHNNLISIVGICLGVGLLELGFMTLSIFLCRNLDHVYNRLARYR
The experiment in a line: competitive radioligand binding on Ramos cells; ratio to Ki of NNV009 (assumed 2.3). The procedure: (§1) The Eppendorf LoBind tubes 1.5 mL were used to prepare dilutions (working concentrations) of Abs. As much as 0.2 mL of the cell suspension (800 000 cells/tube), after it has been cooled down for 30 min on ice, was aliquoted to glass 12×75 mm counting tubes. Each tube was pre-labeled with a code specifically determining each sample. The tubes with cells were maintained on ice for whole time course of the experiment except for the time when counted on the gamma counter. The tubes were agitated on a planetary shaker at 350 RPM, 4° C. (on ice) for 15 min. […] The tubes were placed on the planetary shaker (GL 064), on ice, and shaken for 4 hours at 350 RPM. After 3.5 hours past from the beginning of incubation, the samples were assayed on Wizard2 gamma counter using protocol “Lu-177 General” (all detectors except for the detector #3 were used). Upon completion the counting, the cells were washed with ice-cold 0.5 mL 0.5% BSAPBS three times. All the tubes were assayed on the Wizard2 gamma counter again using the same sequence and parameters as before the washing.

The target in assay [3] is T1, human CD37. Description: competitive radioligand binding on Ramos cells against 177Lu-NNV009 (2.7 nM), gamma counting. On the procedure:
as §1

In assay [4] the target is T2, biotinylated truncated soluble human FcγRI (human, UniProt P12314 16-292, biotinylated).
T2 construct: extracellular domain; Bought; preformed complex with AP-streptavidin
T2 sequence (P12314 16-292): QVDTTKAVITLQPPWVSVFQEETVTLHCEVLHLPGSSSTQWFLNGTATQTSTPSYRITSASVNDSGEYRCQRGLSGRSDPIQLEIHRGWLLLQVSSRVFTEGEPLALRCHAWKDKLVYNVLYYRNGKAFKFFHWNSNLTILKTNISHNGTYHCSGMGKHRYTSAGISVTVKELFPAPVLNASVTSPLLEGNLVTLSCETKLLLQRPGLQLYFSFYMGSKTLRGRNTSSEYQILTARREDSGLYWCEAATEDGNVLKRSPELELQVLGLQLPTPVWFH
Description: ELISA: IgG coated at 10000-4.5 ng/ml, biotinylated truncated soluble human FcγRI 250 ng/ml pre-complexed with AP-streptavidin, absorbance 405 nm. The procedure:
96 well EIA/RIA plates (CorningCostar) were coated with 100 μl titrated amounts of IgG variants (10.000-4.5 ng/ml) diluted in PBS and incubated O/N at 4° C. Remaining surface area were blocked with PBS containing 0.05% T and 4% S for 1 h at RT. The plates were washed four times with PBS/T using a Hydrospeed™ plate washer (Tecan). […] Following washing as above, bound receptor was visualized by addition of phosphatase substrate (1 mg/ml in diethanolamine buffer) (Sigma Aldrich). The plates were developed for 15-20 min before the 405 nm absorption values were recorded using a TECAN Sunrise spectrophotometer (Tecan).

In assay [5] the target is T3, biotinylated soluble human FcRn (human, UniProt P55899 24-297; P61769 21-119, biotinylated).
T3 construct: extracellular domain; Bought; Beta-2-microglobulin is not mentioned; Used as preformed complex with AP-streptavidin
T3 sequence (P55899 24-297 limits assumed, chain 1 of 2): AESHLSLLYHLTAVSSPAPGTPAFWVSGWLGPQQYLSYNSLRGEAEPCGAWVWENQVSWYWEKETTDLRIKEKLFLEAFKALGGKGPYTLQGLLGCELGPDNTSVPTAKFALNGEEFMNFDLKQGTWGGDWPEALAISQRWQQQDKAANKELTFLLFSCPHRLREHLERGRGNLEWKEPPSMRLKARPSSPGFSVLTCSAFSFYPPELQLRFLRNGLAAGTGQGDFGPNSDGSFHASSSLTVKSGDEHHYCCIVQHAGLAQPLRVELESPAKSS
T3 sequence (P61769 21-119 limits assumed, chain 2 of 2): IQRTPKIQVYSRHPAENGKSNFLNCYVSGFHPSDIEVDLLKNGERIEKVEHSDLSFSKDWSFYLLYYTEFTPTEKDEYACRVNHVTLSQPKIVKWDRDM
Description: ELISA: IgG coated at 1000-0.45 ng/ml, biotinylated soluble human FcRn 250 ng/ml pre-complexed with AP-streptavidin, pH 6.0, absorbance 405 nm. The procedure:
Remaining surface area were blocked with PBS containing 0.05% T and 4% S for 1 h at RT. The plates were washed four times with PBS/T using a Hydrospeed™ plate washer (Tecan). […] Following washing as above with PBS/T or FcRn binding buffer ([…], 0.1 M NaCl, 0.05% T, pH 6.0), bound receptor was visualized by addition of phosphatase substrate (1 mg/ml in diethanolamine buffer) (Sigma Aldrich). The plates were developed for 20-30 min before the 405 nm absorption values were recorded using a TECAN Sunrise spectrophotometer (Tecan).
(ELISA stands for enzyme-linked immunosorbent assay.)

Substitutions are numbered along the chain they refer to.

B1: rituximab (antibody, human IgG1, kappa)
chain 1: not shown
chain 2: QIVLSQSPAILSASPGEKVTMTCRASSSVSYIHWFQQKPGSSPKPWIYATSNLASGVPVRFSGSGSGTSYSLTISRVEAEDAATYYCQQWTSNPPTFGGGTKLEIKRTVAAPSVFIFPPSDEQLKSGTASVVCLLNNFYPREAKVQWKVDNALQSGNSQESVTEQDSKDSTYSLSSTLTLSKADYEKHKVYACEVTHQGLSSPVTKSFNRGEC
In the case of B1, in assay [1], the “average potency of the ADCC response (Example 13)” value came out at 21300 pM and the “efficacy (Emax) relative to NNV024, ADCC FcγRIIIa-158V reporter assay” value stood at 75%.

B2: AH02877 (antibody, human IgG1, V domains shown)
VH: QVQLVQSGAEVVKPGASVKVSCKASGYSFTDYNMYWVKQAPGQRLEWMGYIDPYNGDTTYNQKFKGRATLTVDTSASTAYIELSSLRSEDTAVYYCARSPYGHYAMDYWGQGTLVTVSS
VL: DIQMTQSPSSLSASVGDRVTITCKASQDVSTAVDWYQQKPGKSPKLLINWASTRHTGVPSRFSGSGSGTDYTLTISSLQPEDFATYYCRQHYSTPFTFGQGTKLEIKR
notes: Full-length human IgG1 kappa; constant domains from NNV003; also called NNV020 #3
In the case of B2, in the assay with human CD37 [2], the “Ki(NNV009)/Ki(NNV020 var.)” value was 5.45 fold. In the assay with human CD37 [3], the EC50 worked out at 918 pM and the Ki came to 422 pM.

B3: AH02875 (antibody, human IgG1, V domains shown)
VH: B2 VH with V2I, V11L, V12K, K38R, L70I, V72R
VL: B2 VL with L78M
notes: Full-length human IgG1 kappa; also called NNV020 #2
B3: the “Ki(NNV009)/Ki(NNV020 var.)” value with human CD37 [2] was 4.36 fold. Besides, in the assay with human CD37 [3], the EC50 was found to be 1150 pM and the Ki came to 528 pM.

B4: AH02879 (antibody, human IgG1, V domains shown)
VH: B2 VH with V2I, M48I, V72R, I81M
VL: B2 VL with A13T, L78M
notes: Full-length human IgG1 kappa; constant domains from NNV003; also called NNV020 #4
In the case of B4, the “Ki(NNV009)/Ki(NNV020 var.)” value with human CD37 [2] worked out at 5.22 fold. In the assay with human CD37 [3], this molecule yielded an EC50 of 959 pM and a Ki of 441 pM.

B5: TCMC-NNV003 (antibody, human IgG1, kappa)
heavy: not shown
light: DIVMTQSHKLLSTSVGDRVSITCKASQDVSTAVDWYQQKPGQSPKLLINWASTRHTGVPDRFTGSGSGTDYTLTISSMQAEDLALYYCRQHYSTPFTFGSGTKLEIKRTVAAPSVFIFPPSDEQLKSGTASVVCLLNNFYPREAKVQWKVDNALQSGNSQESVTEQDSKDSTYSLSSTLTLSKADYEKHKVYACEVTHQGLSSPVTKSFNRGEC
modifications: TCMC chelator conjugate; sites not stated; TCMC chelator conjugate (GGG-TCMC); sites not stated
notes: chains are those of NNV003; also called NNV003-TCMC; NNV003-GGG-TCMC
On to B5, for which the figures for the “EC50 (read off the curve)” value in assay [4] and in assay [5] were around 0.4 µg/mL and around 0.06 µg/mL, respectively.

B6: DuoHexaBody-CD37 (bispecific antibody, human IgG1, kappa)
heavy 1: not shown
light 1: YDMTQSPSTLSASVGDRVTITCQASQNIIDYLAWYQQKPGKAPKLLIHKASTTLASGVPSRFKGSGSGTEFTLTISSLQPDDFATYYCQQGYSNSNIDNTFGGGTKVEIKRTVAAPSVFIFPPSDEQLKSGTASVVCLLNNFYPREAKVQWKVDNALQSGNSQESVTEQDSKDSTYSLSSTLTLSKADYEKHKVYACEVTHQGLSSPVTKSFNRGEC
heavy 2: not shown
light 2: DVVMTQSPSTLSASVGDRVTITCQASQNIDSNLAWYQQKPGKAPKFLIYYASNLPFGVPSRFKGSGSGTEFTLTISSLQPDDFATYYCQSADVGSTYVAAFGGGTKVEIKRTVAAPSVFIFPPSDEQLKSGTASVVCLLNNFYPREAKVQWKVDNALQSGNSQESVTEQDSKDSTYSLSSTLTLSKADYEKHKVYACEVTHQGLSSPVTKSFNRGEC
With B6, in assay [1], the “average potency of the ADCC response (Example 13)” value came to 900 pM and the “efficacy (Emax) relative to NNV024, ADCC FcγRIIIa-158V reporter assay” value came out at 53%.

B7: NNV025 (antibody, human IgG1, kappa)
heavy: not shown
light: DIQMTQSPSSLSASVGDRVTITCKASQDVSTAVDWYQQKPGKSPKLLINWASTRHTGVPSRFSGSGSGTDYTLTISSLQPEDFATYYCRQHYSTPFTFGQGTKLEIKRTVAAPSVFIFPPSDEQLKSGTASVVCLLNNFYPREAKVQWKVDNALQSGNSQESVTEQDSKDSTYSLSSTLTLSKADYEKHKVYACEVTHQGLSSPVTKSFNRGEC
notes: Humanized IgG1 kappa; also called AH02871HC + AH02877LC; AH2871HC_2877LC
Take B7: the “Ki(NNV009)/Ki(NNV020 var.)” value with human CD37 [2] amounted to 4.31 fold. In the assay with human CD37 [3], this molecule displayed an EC50 of 1160 pM and a Ki of 533 pM.

B8: AH02886 (antibody, human IgG1, kappa, V domains shown)
VH: B2 VH with V11L, V12K, A68V, I81M
VL: B2 VL with A13T, S43A
notes: Humanized IgG1 kappa; also called NNV027; NNV020 #5
For B8, in the assay with human CD37 [2], the “Ki(NNV009)/Ki(NNV020 var.)” value came to 4.3 fold. In the assay with human CD37 [3], this molecule had an EC50 of 1160 pM and a Ki of 535 pM.

B9: AH02871 (antibody, human IgG1, kappa, V domains shown)
VH: B2 VH with A68V, L70I, V72R, I81M
VL: B2 VL with S43A, L78M
notes: Humanized IgG1 kappa; also called NNV026; NNV020 #1
Regarding B9, in the assay with human CD37 [2], the “Ki(NNV009)/Ki(NNV020 var.)” value was found to be 4.27 fold. In the assay with human CD37 [3], it took 1170 pM to reach a half-maximal effect (EC50) and affinity was put at a Ki of 539 pM.

As a reminder, the EC50 is the concentration giving half of the maximal effect. A higher EC50 goes with a less potent agent. For orientation: Ki means the equilibrium dissociation constant of an inhibitor or competing ligand from its target. A low value points to higher affinity. Usually EC50 (read off the curve) stands for the concentration needed to bring the measured effect to its halfway point. The low end stands for higher potency in that assay, the high end for lower potency in that assay.
